Experimental data reported in paper PMC3506575.

Target: human GLP-2 Receptor (human) (UniProt O95838)
UniProt O95838, sequence (O95838 whole entry): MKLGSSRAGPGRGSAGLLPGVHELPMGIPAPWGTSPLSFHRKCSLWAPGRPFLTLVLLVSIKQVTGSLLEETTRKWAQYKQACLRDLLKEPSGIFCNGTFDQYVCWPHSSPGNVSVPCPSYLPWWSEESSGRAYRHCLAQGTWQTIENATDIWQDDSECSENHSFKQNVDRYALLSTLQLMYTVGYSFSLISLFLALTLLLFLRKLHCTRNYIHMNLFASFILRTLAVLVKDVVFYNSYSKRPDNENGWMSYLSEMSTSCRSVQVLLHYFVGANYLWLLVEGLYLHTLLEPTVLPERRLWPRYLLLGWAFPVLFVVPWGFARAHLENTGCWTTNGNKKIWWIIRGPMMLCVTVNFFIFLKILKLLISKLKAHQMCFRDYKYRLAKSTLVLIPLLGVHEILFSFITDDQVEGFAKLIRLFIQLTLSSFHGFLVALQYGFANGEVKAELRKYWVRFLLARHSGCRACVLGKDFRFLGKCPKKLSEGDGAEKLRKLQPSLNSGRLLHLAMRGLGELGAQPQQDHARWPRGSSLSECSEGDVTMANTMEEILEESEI

- calcium flux (FLIPR) in a human GLP-2 receptor-expressing Chem-11 cell line, serial dilutions, EC50 of activation: 380 nM
B1: GLP2-2G-XTEN fusion protein (protein)
chain: HGDGSFSDEMNTILDNLAARDFINWLIQTKITDGGSPAGSPTSTEEGTSESATPESGPGTSTEPSEGSAPGSPAGSPTSTEEGTSTEPSEGSAPGTSTEPSEGSAPGTSESATPESGPGSEPATSGSETPGSEPATSGSETPGSPAGSPTSTEEGTSESATPESGPGTSTEPSEGSAPGTSTEPSEGSAPGSPAGSPTSTEEGTSTEPSEGSAPGTSTEPSEGSAPGTSESATPESGPGTSTEPSEGSAPGTSESATPESGPGSEPATSGSETPGTSTEPSEGSAPGTSTEPSEGSAPGTSESATPESGPGTSESATPESGPGSPAGSPTSTEEGTSESATPESGPGSEPATSGSETPGTSESATPESGPGTSTEPSEGSAPGTSTEPSEGSAPGTSTEPSEGSAPGTSTEPSEGSAPGTSTEPSEGSAPGTSTEPSEGSAPGSPAGSPTSTEEGTSTEPSEGSAPGTSESATPESGPGSEPATSGSETPGTSESATPESGPGSEPATSGSETPGTSESATPESGPGTSTEPSEGSAPGTSESATPESGPGSPAGSPTSTEEGSPAGSPTSTEEGSPAGSPTSTEEGTSESATPESGPGTSTEPSEGSAPGTSESATPESGPGSEPATSGSETPGTSESATPESGPGSEPATSGSETPGTSESATPESGPGTSTEPSEGSAPGSPAGSPTSTEEGTSESATPESGPGSEPATSGSETPGTSESATPESGPGSPAGSPTSTEEGSPAGSPTSTEEGTSTEPSEGSAPGTSESATPESGPGTSESATPESGPGTSESATPESGPGSEPATSGSETPGSEPATSGSETPGSPAGSPTSTEEGTSTEPSEGSAPGTSTEPSEGSAPGSEPATSGSETPGTSESATPESGPGTSTEPSEGSAPG
